Test results taken from publication PMC12208130.

Molecular target: T1, PTK7 (receptor on HCT116 cells) (human (HCT116 colon cancer cells)) (UniProt Q13308)
T1 sequence: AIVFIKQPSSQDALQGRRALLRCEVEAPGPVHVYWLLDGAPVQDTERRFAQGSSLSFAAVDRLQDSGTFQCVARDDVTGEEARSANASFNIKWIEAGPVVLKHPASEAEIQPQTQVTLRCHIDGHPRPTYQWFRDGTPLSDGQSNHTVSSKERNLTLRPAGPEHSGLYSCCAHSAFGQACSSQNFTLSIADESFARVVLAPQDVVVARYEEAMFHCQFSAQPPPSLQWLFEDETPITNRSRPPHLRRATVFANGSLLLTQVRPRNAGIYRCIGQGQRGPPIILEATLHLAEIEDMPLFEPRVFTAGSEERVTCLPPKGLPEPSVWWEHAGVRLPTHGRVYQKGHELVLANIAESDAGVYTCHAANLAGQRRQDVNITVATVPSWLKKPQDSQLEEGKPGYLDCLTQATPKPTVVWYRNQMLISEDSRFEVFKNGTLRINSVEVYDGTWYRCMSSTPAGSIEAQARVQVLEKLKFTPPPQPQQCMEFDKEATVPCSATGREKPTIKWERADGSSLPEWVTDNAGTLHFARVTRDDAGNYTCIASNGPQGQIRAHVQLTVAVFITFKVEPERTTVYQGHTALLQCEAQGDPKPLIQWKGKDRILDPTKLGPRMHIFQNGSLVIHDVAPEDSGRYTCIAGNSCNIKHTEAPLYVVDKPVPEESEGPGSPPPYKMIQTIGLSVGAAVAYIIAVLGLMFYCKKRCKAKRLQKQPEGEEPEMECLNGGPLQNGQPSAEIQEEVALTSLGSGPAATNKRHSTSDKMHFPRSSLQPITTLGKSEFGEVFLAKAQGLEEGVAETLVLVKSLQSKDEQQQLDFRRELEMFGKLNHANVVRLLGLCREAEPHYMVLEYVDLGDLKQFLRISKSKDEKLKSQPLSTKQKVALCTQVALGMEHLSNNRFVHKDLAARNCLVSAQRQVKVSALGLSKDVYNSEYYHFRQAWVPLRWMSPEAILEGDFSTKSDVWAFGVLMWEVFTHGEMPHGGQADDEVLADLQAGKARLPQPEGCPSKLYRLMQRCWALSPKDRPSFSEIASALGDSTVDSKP
Test: flow cytometry
Conditions: 250 nM aptamer (varied for Kd), 30 min at 4 C, DPBS with ~5 mM MgCl2, 0.1 mg/mL yeast tRNA, 1 mg/mL BSA (a 2.25 g additive in the wash buffer is …)

| Sequence | Kd | Kd (A23 = cordycepin (3'-deoxyadenosine), 2'-5' linkage) |
| --- | --- | --- |
| ATCTAACTGCTGCGCCGCCGGGAAAATACTGTACGGTTAGA [Sgc8c (Sgc8-Cy5)] | 5.92 nM | – |
| ATCTAACTGCTGCGCCGCCGGGAAAATACTGTACGGTTAGA [Sgc8-23A] | – | 6.3 nM |
